Results reported in patent US20170210812A1.

B1: h62G7-EQ/L6/CD3 biFc (bispecific antibody, part only; not given: anti-CD3 arm and Fc, V domains shown, part only)
VH: QVQLVQSGAEVKKPGASVKVSCKASGYTFTDYTLHWVRQAPGQGLEWMGGIWPITGGTTYNQKFKGRVTMTRDTSTSTVYMELSSLRSEDTAVYYCARGEAQGSWGQGTLVTVSS
VL: DVVMTQSPLSLPVTLGQPASISCKSSQSLLYSNGKTYLNWFQQRPGQSPRRLIYQVSKLDSGVPDRFSGSGSGTDFTLKISRVEAEDVGVYYCGQDTHFPLTFGGGTKVEIK
B2: 42G9/CD3 biFc (bispecific antibody, part only; not given: anti-CD3 arm and Fc, V domains shown, part only)
VH: QVTLKESGPVLLKPTETLTLTCTVSGFSLSNPRMGVSWIRQPPGKALEWFAHIFSTDEKSLKLSLRSRLTLSKDTSKSQVVLTMTNMAPVDSATYYCARDSSNYEGYFDFWGQGTLVTVSS
VL: EVVLTQSPATLSVSPGERATLSCRASQSVRSNLAWYQQKSGQAPRLLIYGSTIRATGVPARFSGSGSGTEFTLTISSLQSEDFAVYYCQQYSDWPFTFGPGTKVDIK

Tests used:
[1] = target: EGFRvIII expressed on cells (human) (UniProt P00533); experiment: cell-based or functional assay
[2] = target: wild-type EGFR expressed on cells (human) (UniProt P00533); experiment: cell-based or functional assay

Binder	percentage of live target cells, DKMG with activated T cells, 1 nM antibody [1] [%]	percentage of live target cells, LN18-EGFRvIII with activated T cells, 0.01 nM antibody [1] [%]	percentage of live target cells, parental LN18 with activated T cells, 0.01 nM antibody [2] [%]	percentage of live target cells, LN229-EGFRvIII with activated T cells, 0.01 nM antibody [1] [%]	percentage of live target cells, parental LN229 with activated T cells, 0.01 nM antibody [2] [%]
B1	35	20	100		
B2				35	100
